Measurements: publication PMC5821843, “Development of a high-throughput assay for rapid screening of butanologenic strains” (Scientific Reports, 2018)

What was measured:
purified protein [1] = substrate: CCO; experiment: purified protein; conditions: 330 µM NAD+, 8 µM PMS, 330 µM NBT, 0.1% gelatin, 100 mM Tris-HCl pH 8.6, ~22 °C
purified protein [2] = substrate: CCCCO; experiment: purified protein; format: biochemical, Pseudothermotoga hypogea; conditions: NADP+ co-substrate, CAPS pH 11.6, 1 mM DTT, 0.1 mM FeCl2, 80 °C, anaerobic, aerobically purified enzyme

B1: Sc ADH (Saccharomyces cerevisiae S288C) (protein)
chain: SIPETQKGVIFYESHGKLEYKDIPVPKPKANELLINVKYSGVCHTDLHAWHGDWPLPVKLPLVGGHEGAGVVVGMGENVKGWKIGDYAGIKWLNGSCMACEYCELGNESNCPHADLSGYTHDGSFQQYATADAVQAAHIPQGTDLAQVAPILCAGITVYKALKSANLMAGHWVAISGAAGGLGSLAVQYAKAMGYRVLGIDGGEGKEELFRSIGGEVFIDFTKEKDIVGAVLKATDGGAHGVINVSVSEAAIEASTRYVRANGTTVLVGMPAGAKCCSDVFNQVVKSISIVGSYVGNRADTREALDFFARGLVKSPIKVVGLSTLPEIYEKMEKGQIVGRYVVDTSK
Km (purified protein [1]): 22.7 ± 2.9 mM
kcat (purified protein [1]): 20.5 ± 2.37 s⁻¹

B2: Th ADH (Th ADH_ae) (Pseudothermotoga hypogea DSM 11164 = NBRC 106472) (protein)
chain: MENFVFHNPTKLIFGKGTIPKIGEEIKSFGIKKVLMLYGGGSIKKNGVYDQVVESLKRNGIEWVEVSGVKPNPVLSKVHEAIEVCRKENVEAVLGVGGGSVIDSAKAIAAGVLYEGDIWDAFAGKHKINNALPVFAILTISATGTEMNGNAVVTNEKTQEKWAISAKCLYPRVSIIDPTAQFSLPKEQTVYGAVDAIAHTLEYYFDGSDSDIQNQISESIIRSIMKSTEVLIDNPQDYEARANFAWCATIALNGLTAAGRKGGDWSCHKIEHSLSALYDIAHGAGLAIVFPAWMRYVYKQKPQQFERFAKHVFSIDAVGEEAILKGIDAFKAWLRKVGAPVSLRDVGIPAQDIDRIVENVMKQGPSFGVLKKLGKEDVKQILLIASQ
notes: ORF in pET-33b, N-terminal His6 tag (kept), E. coli BL21(DE3) Rosetta grown anaerobically, purified aerobically; ~42 kDa
Km (purified protein [2]): 34.1 ± 0.6 mM
kcat (purified protein [2]): 3.943 ± 0.0867 s⁻¹
